Measurements: the RNAGym collection of RNA variant scans (doi:10.1093/molbev/msab373)

B1: Azoarcus group I ribozyme (parent)
chain: GUGCCUUGCGCCGGGAAACCACGCAAGGGAUGGUGUCAAAUUCGGCGAAACCUAAGCGCCCGCCCGGGCGUAUGGCAACGCCGAGCCAAGCUUCGGCGCCUGCGCCGAUGAAGGUGUAGAGACUAGACGGCACCCACCUAAGGCAAACGCUAUGGUGAAGGCAUAGUCCAGGGAGUGGCGAAAGUCACACAAACCGG

Variants of: B1
Assay: reverse-splicing fitness (ratio to wild type); higher = more active; in vitro selection; Mg2+ level not given
Method in brief: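 An in vitro group I ribozyme library with randomized positions was T7-transcribed and gel-purified. In triplicate, 10 pmol RNA in EPPS pH 7.5 was reacted with 50 pmoles of a 30-nt RNA substrate for 1 h at 37 °C across several added MgCl2 levels (1–48 mM), then stopped with EDTA. Products were reverse transcribed from a substrate-complementary primer, PCR-amplified and sequenced (HiSeq 4000). Fitness is a variant's read proportion after selection over that before, normalised to wild type.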

Variant	reverse-splicing fitness
GUGCCUUGCGCCGGGAAACCACGCAAGGGAUGGUGUCAAAUUCGGCGAAACCUAAGCGCCCGCCCGGGCGUAUGGCAACGCUGAGCCAAGCUUCGGCGCCUGCGCCGAUGAAGGUGUAGGGACUAGACGGCACCCACCUAAGGCCAACGUUAUGGUGAAGGCAUAGUCGAGGGAGAGGCGAAAGUCACACAAACCGG [C82U A120G A145C C150U C169G U176A]	0.0197
GUGCCUUGCGCCGGGAAACCACGCAAGGGAUGGUGUCAAAUUCGGCGAAACCUAAGCGCCCGCCCGGGCGUAUGGCAACGCUGAGCCAAGCUUCGGCGCCUGCGCCGAUGAAGGUGUAGGGACUAGACGGCACCCACCUAAGGCCAACGUUAUGGUGAAGGCAUAGUCGAGGGAGGGGCGAAAGUCACACAAACCGG [C82U A120G A145C C150U C169G U176G]	0.0041
GUGCCUUGCGCCGGGAAACCACGCAAGGGAUGGUGUCAAAUUCGGCGAAACCUAAGCGCCCGCCCGGGCGUAUGGCAACGCUGAGCCAAGCUUCGGCGCCUGCGCCGAUGAAGGUGUAGGGACUAGACGGCACCCACCUAAGGCCAACGUUAUGGUGAAGGCAUAGUCGAGGGAGCGGCGAAAGUCACACAAACCGG [C82U A120G A145C C150U C169G U176C]	0.0111
GUGCCUUGCGCCGGGAAACCACGCAAGGGAUGGUGUCAAAUUCGGCGAAACCUAAGCGCCCGCCCGGGCGUAUGGCAACGCUGAGCCAAGCUUCGGCGCCUGCGCCGAUGAAGGUGUAGGGACUAGACGGCACCCACCUAAGGCCAACGGUAUGGUGAAGGCAUAGUCAAGGGAGGGGCGAAAGUCACACAAACCGG [C82U A120G A145C C150G C169A U176G]	0.00406
GUGCCUUGCGCCGGGAAACCACGCAAGGGAUGGUGUCAAAUUCGGCGAAACCUAAGCGCCCGCCCGGGCGUAUGGCAACGCUGAGCCAAGCUUCGGCGCCUGCGCCGAUGAAGGUGUAGGGACUAGACGGCACCCACCUAAGGCCAACGGUAUGGUGAAGGCAUAGUCGAGGGAGCGGCGAAAGUCACACAAACCGG [C82U A120G A145C C150G C169G U176C]	0.00713
GUGCCUUGCGCCGGGAAACCACGCAAGGGAUGGUGUCAAAUUCGGCGAAACCUAAGCGCCCGCCCGGGCGUAUGGCAACGCUGAGCCAAGCUUCGGCGCCUGCGCCGAUGAAGGUGUAGGGACUAGACGGCACCCACCUAAGGCCAACGGUAUGGUGAAGGCAUAGUCGAGGGAGAGGCGAAAGUCACACAAACCGG [C82U A120G A145C C150G C169G U176A]	0.00838
GUGCCUUGCGCCGGGAAACCACGCAAGGGAUGGUGUCAAAUUCGGCGAAACCUAAGCGCCCGCCCGGGCGUAUGGCAACGCUGAGCCAAGCUUCGGCGCCUGCGCCGAUGAAGGUGUAGGGACUAGACGGCACCCACCUAAGGCCAACGGUAUGGUGAAGGCAUAGUCGAGGGAGGGGCGAAAGUCACACAAACCGG [C82U A120G A145C C150G C169G U176G]	0.00336
GUGCCUUGCGCCGGGAAACCACGCAAGGGAUGGUGUCAAAUUCGGCGAAACCUAAGCGCCCGCCCGGGCGUAUGGCAACGCUGAGCCAAGCUUCGGCGCCUGCGCCGAUGAAGGUGUAGGGACUAGACGGCACCCACCUAAGGCCAACGUUAUGGUGAAGGCAUAGUCUAGGGAGUGGCGAAAGUCACACAAACCGG [C82U A120G A145C C150U C169U]	0.00884
GUGCCUUGCGCCGGGAAACCACGCAAGGGAUGGUGUCAAAUUCGGCGAAACCUAAGCGCCCGCCCGGGCGUAUGGCAACGCUGAGCCAAGCUUCGGCGCCUGCGCCGAUGAAGGUGUAGGGACUAGACGGCACCCACCUAAGGCCAACGUUAUGGUGAAGGCAUAGUCAAGGGAGUGGCGAAAGUCACACAAACCGG [C82U A120G A145C C150U C169A]	0.00913
GUGCCUUGCGCCGGGAAACCACGCAAGGGAUGGUGUCAAAUUCGGCGAAACCUAAGCGCCCGCCCGGGCGUAUGGCAACGCUGAGCCAAGCUUCGGCGCCUGCGCCGAUGAAGGUGUAGGGACUAGACGGCACCCACCUAAGGCCAACGUUAUGGUGAAGGCAUAGUCGAGGGAGUGGCGAAAGUCACACAAACCGG [C82U A120G A145C C150U C169G]	0.00988
GUGCCUUGCGCCGGGAAACCACGCAAGGGAUGGUGUCAAAUUCGGCGAAACCUAAGCGCCCGCCCGGGCGUAUGGCAACGCUGAGCCAAGCUUCGGCGCCUGCGCCGAUGAAGGUGUAGGGACUAGACGGCACCCACCUAAGGCCAACGUUAUGGUGAAGGCAUAGUCAAGGGAGCGGCGAAAGUCACACAAACCGG [C82U A120G A145C C150U C169A U176C]	0.00527
GUGCCUUGCGCCGGGAAACCACGCAAGGGAUGGUGUCAAAUUCGGCGAAACCUAAGCGCCCGCCCGGGCGUAUGGCAACGCUGAGCCAAGCUUCGGCGCCUGCGCCGAUGAAGGUGUAGGGACUAGACGGCACCCACCUAAGGCCAACGUUAUGGUGAAGGCAUAGUCAAGGGAGAGGCGAAAGUCACACAAACCGG [C82U A120G A145C C150U C169A U176A]	0.00991
GUGCCUUGCGCCGGGAAACCACGCAAGGGAUGGUGUCAAAUUCGGCGAAACCUAAGCGCCCGCCCGGGCGUAUGGCAACGCUGAGCCAAGCUUCGGCGCCUGCGCCGAUGAAGGUGUAGGGACUAGACGGCACCCACCUAAGGCCAACGUUAUGGUGAAGGCAUAGUCAAGGGAGGGGCGAAAGUCACACAAACCGG [C82U A120G A145C C150U C169A U176G]	0.00346
GUGCCUUGCGCCGGGAAACCACGCAAGGGAUGGUGUCAAAUUCGGCGAAACCUAAGCGCCCGCCCGGGCGUAUGGCAACGCUGAGCCAAGCUUCGGCGCCUGCGCCGAUGAAGGUGUAGGGACUAGACGGCACCCACCUAAGGCCAACGUUAUGGUGAAGGCAUAGUCCAGGGAGGGGCGAAAGUCACACAAACCGG [C82U A120G A145C C150U U176G]	0.00347
GUGCCUUGCGCCGGGAAACCACGCAAGGGAUGGUGUCAAAUUCGGCGAAACCUAAGCGCCCGCCCGGGCGUAUGGCAACGCUGAGCCAAGCUUCGGCGCCUGCGCCGAUGAAGGUGUAGGGACUAGACGGCACCCACCUAAGGCCAACGUUAUGGUGAAGGCAUAGUCCAGGGAGAGGCGAAAGUCACACAAACCGG [C82U A120G A145C C150U U176A]	0.00845
